Experimental data reported in patent publication US20220002427A1 (ENGMAB SARL, published 2022).
“And” between values parts separate entries of the source, which are not always exact repeats. Equal entries are not always repeated.

How the values were obtained:
[1] = target: T1, human BCMA on cells (human, UniProt Q02223 1-184); experiment: cell-based or functional assay
T1 sequence (looked up): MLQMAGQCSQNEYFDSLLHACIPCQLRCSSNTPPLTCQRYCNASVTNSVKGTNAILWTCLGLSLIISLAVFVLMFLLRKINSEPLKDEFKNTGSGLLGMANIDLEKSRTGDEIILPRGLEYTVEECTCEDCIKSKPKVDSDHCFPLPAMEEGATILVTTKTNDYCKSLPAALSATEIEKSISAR

[2] = target: T1, human BCMA on cells; experiment: cell-based or functional assay; remark: listed apart in the source
[3] = target: T1, human BCMA on cells; experiment: cell-based or functional assay; remark: listed apart in the source
[4] = target: T1, human BCMA on cells; experiment: flow cytometry on H929 multiple myeloma cells, PE anti-human Fc F(ab')2 detection; estimated EC50
Experimental: (§1) Briefly, cultured cells are harvested, counted and cell viability was evaluated using ViCell. Viable cells are then adjusted to 2×10⁶ cells per ml in BSA-containing FACS Stain Buffer (BD Biosciences). 100 μl of this cell suspension were further aliquoted per well into a round-bottom 96-well plate and incubated with 30 μl of the anti-BCMA antibodies or corresponding IgG control for 30 min at 4° c. All Anti-BCMA/anti-CD3 TCB antibodies (and TCB controls) were titrated and analyzed in final concentration range between 1-300 nM. Cells were then centrifuged (5 min, 350×g), washed with 120 μl/well FACS Stain Buffer (BD Biosciences), resuspended and incubated for an additional 30 min at 4° C. with fluorochrome-conjugated PE-conjugated AffiniPure F(ab′)2 Fragment goat anti-human IgG Fc Fragment Specific (Jackson Immuno Research Lab; 109-116-170). Cells were then washed twice with Stain Buffer (BD Biosciences), fixed using 100 ul BD Fixation buffer per well (#BD Biosciences, 554655) at 4° C. for 20 min, resuspended in 120 μl FACS buffer and analyzed using BD FACS CantoII.

[5] = target: T1, human BCMA on cells; experiment: flow cytometry on RPMI-8226 multiple myeloma cells, PE anti-human Fc F(ab')2 detection; estimated EC50
Experimental: as §1

[6] = target: T1, human BCMA on cells; experiment: cell-based or functional assay; remark: listed apart in the source
[7] = target: T1, human BCMA on cells; experiment: cell-based or functional assay; remark: listed apart in the source
[8] = target: T1, human BCMA on cells; experiment: flow cytometry on L363 multiple myeloma cells, PE anti-human Fc F(ab')2 detection; estimated EC50
Experimental: as §1

B1: 21-TCBcv (bispecific antibody, human IgG1, kappa, L234A L235A)
heavy 1: not shown
heavy 2: EVQLLESGGGLVQPGGSLRLSCAASGFTFSDNAMGWVRQAPGKGLEWVSAISGPGSSTYYADSVKGRFTISRDNSKNTLYLQMNSLRAEDTAVYYCAKVLGWFDYWGQGTLVTVSSASTKGPSVFPLAPSSKSTSGGTAALGCLVEDYFPEPVTVSWNSGALTSGVHTFPAVLQSSGLYSLSSVVTVPSSSLGTQTYICNVNHKPSNTKVDEKVEPKSCDKTHTCPPCPAPEAAGGPSVFLFPPKPKDTLMISRTPEVTCVVVDVSHEDPEVKFNWYVDGVEVHNAKTKPREEQYNSTYRVVSVLTVLHQDWLNGKEYKCKVSNKALGAPIEKTISKAKGQPREPQVCTLPPSRDELTKNQVSLSCAVKGFYPSDIAVEWESNGQPENNYKTTPPVLDSDGSFFLVSKLTVDKSRWQQGNVFSCSVMHEALHNHYTQKSLSLSPGK
light 1: EIVLTQSPGTLSLSPGERATLSCRASQSVSEYYLAWYQQKPGQAPRLLIEHASTRATGIPDRFSGSGSGTDFTLTISRLEPEDFAVYYCQQYGYPPDFTFGQGTKVEIKRTVAAPSVFIFPPSDRKLKSGTASVVCLLNNFYPREAKVQWKVDNALQSGNSQESVTEQDSKDSTYSLSSTLTLSKADYEKHKVYACEVTHQGLSSPVTKSFNRGEC
light 2: EVQLLESGGGLVQPGGSLRLSCAASGFTFSTYAMNWVRQAPGKGLEWVSRIRSKYNNYATYYADSVKGRFTISRDDSKNTLYLQMNSLRAEDTAVYYCVRHGNFGNSYVSWFAYWGQGTLVTVSSASVAAPSVFIFPPSDEQLKSGTASVVCLLNNFYPREAKVQWKVDNALQSGNSQESVTEQDSKDSTYSLSSTLTLSKADYEKHKVYACEVTHQGLSSPVTKSFNRGEC
notes: also called anti-BCMA/anti-CD3 T cell bispecific antibody of Mab21
- EC50 of redirected T-cell killing of H929 cells (LDH release), Donor 1 [1]: 97.1 pM
- EC50 of redirected T-cell killing of H929 cells (LDH release), Donor 3 [1]: 42.1 pM
- EC50 of redirected T-cell killing of H929 cells (LDH release), Donor 4 [1]: 53.9 pM
- EC50 of redirected T-cell killing of H929 cells (LDH release), Donor 5 [1]: 38.7 pM
- EC50 of redirected T-cell killing of L363 cells (LDH release), Donor 1 [2]: 83.6 pM
- EC50 of redirected T-cell killing of L363 cells (LDH release), Donor 2 [2]: 38.4 pM
- EC50 of redirected T-cell killing of L363 cells (LDH release), Donor 3 [2]: 18.9 pM
- EC50 of redirected T-cell killing of L363 cells (LDH release), Donor 4 [2]: 19.1 pM
- EC50 of redirected T-cell killing of L363 cells (LDH release), Donor 5 [2]: 46.4 pM
- EC50 of redirected T-cell killing of RPMI-8226 cells (LDH release), Donor 2 [3]: 41.3 pM
- EC50 of redirected T-cell killing of RPMI-8226 cells (LDH release), Donor 3 [3]: 8.8 pM
- EC50 of redirected T-cell killing of RPMI-8226 cells (LDH release), Donor 4 [3]: 4 pM
- EC50 of redirected T-cell killing of RPMI-8226 cells (LDH release), Donor 5 [3]: 8.4 pM
- EC50 [4]: 11 nM and 1.59 µg/mL
- EC50 [5]: 6.8 nM and 0.982 µg/mL

B2: 22-TCBcv (bispecific antibody, human IgG1, kappa, L234A L235A)
heavy 1: not shown
heavy 2: EVQLLESGGGLVQPGGSLRLSCAASGFTFSDNAMGWVRQAPGKGLEWVSAISGPGSSTYYADSVKGRFTISRDNSKNTLYLQMNSLRAEDTAVYYCAKVLGWFDYWGQGTLVTVSSASTKGPSVFPLAPSSKSTSGGTAALGCLVEDYFPEPVTVSWNSGALTSGVHTFPAVLQSSGLYSLSSVVTVPSSSLGTQTYICNVNHKPSNTKVDEKVEPKSCDKTHTCPPCPAPEAAGGPSVFLFPPKPKDTLMISRTPEVTCVVVDVSHEDPEVKFNWYVDGVEVHNAKTKPREEQYNSTYRVVSVLTVLHQDWLNGKEYKCKVSNKALGAPIEKTISKAKGQPREPQVCTLPPSRDELTKNQVSLSCAVKGFYPSDIAVEWESNGQPENNYKTTPPVLDSDGSFFLVSKLTVDKSRWQQGNVFSCSVMHEALHNHYTQKSLSLSPGK
light 1: EIVLTQSPGTLSLSPGERATLSCRASQSVSSYYLAWYQQKPGQAPRLLISGAGSRATGIPDRFSGSGSGTDFTLTISRLEPEDFAVYYCQQYGYPPDFTFGQGTKVEIKRTVAAPSVFIFPPSDRKLKSGTASVVCLLNNFYPREAKVQWKVDNALQSGNSQESVTEQDSKDSTYSLSSTLTLSKADYEKHKVYACEVTHQGLSSPVTKSFNRGEC
light 2: EVQLLESGGGLVQPGGSLRLSCAASGFTFSTYAMNWVRQAPGKGLEWVSRIRSKYNNYATYYADSVKGRFTISRDDSKNTLYLQMNSLRAEDTAVYYCVRHGNFGNSYVSWFAYWGQGTLVTVSSASVAAPSVFIFPPSDEQLKSGTASVVCLLNNFYPREAKVQWKVDNALQSGNSQESVTEQDSKDSTYSLSSTLTLSKADYEKHKVYACEVTHQGLSSPVTKSFNRGEC
notes: also called 22-TCVcv; anti-BCMA/anti-CD3 T cell bispecific antibody of Mab22
- EC50 of redirected T-cell killing of H929 cells (LDH release), Donor 1 [1]: 53.2 pM
- EC50 of redirected T-cell killing of H929 cells (LDH release), Donor 3 [1]: 42.2 pM
- EC50 of redirected T-cell killing of H929 cells (LDH release), Donor 4 [1]: 23.2 pM
- EC50 of redirected T-cell killing of H929 cells (LDH release), Donor 5 [1]: 28.9 pM
- EC50 of redirected T-cell killing of L363 cells (LDH release), Donor 1 [2]: 97.5 pM
- EC50 of redirected T-cell killing of L363 cells (LDH release), Donor 2 [2]: 27.7 pM
- EC50 of redirected T-cell killing of L363 cells (LDH release), Donor 3 [2]: 16.5 pM
- EC50 of redirected T-cell killing of L363 cells (LDH release), Donor 4 [2]: 14.6 pM
- EC50 of redirected T-cell killing of L363 cells (LDH release), Donor 5 [2]: 56 pM
- EC50 of redirected T-cell killing of RPMI-8226 cells (LDH release), Donor 2 [3]: 47.6 pM
- EC50 of redirected T-cell killing of RPMI-8226 cells (LDH release), Donor 3 [3]: 7.6 pM
- EC50 of redirected T-cell killing of RPMI-8226 cells (LDH release), Donor 4 [3]: 3.2 pM
- EC50 of redirected T-cell killing of RPMI-8226 cells (LDH release), Donor 5 [3]: 5.5 pM
- Annexin-V positive JJN-3 cells (%) at 0.1 pM TCB, Experiment 2 [6]: 14.8%
- Annexin-V positive JJN-3 cells (%) at 1 pM TCB, Experiment 1 [6]: 9.3%
- Annexin-V positive JJN-3 cells (%) at 1 pM TCB, Experiment 2 [6]: 15%
- Annexin-V positive JJN-3 cells (%) at 10 pM TCB, Experiment 1 [6]: 13.3%
- Annexin-V positive JJN-3 cells (%) at 10 pM TCB, Experiment 2 [6]: 15.9%
- Annexin-V positive JJN-3 cells (%) at 100 pM TCB, Experiment 1 [6]: 12.5%
- Annexin-V positive JJN-3 cells (%) at 100 pM TCB, Experiment 2 [6]: 18.4%
- Annexin-V positive JJN-3 cells (%) at 1000 pM TCB, Experiment 1 [6]: 26.1%
- Annexin-V positive JJN-3 cells (%) at 1000 pM TCB, Experiment 2 [6]: 27%
- Annexin-V positive JJN-3 cells (%) at 10000 pM TCB, Experiment 1 [6]: 22.9%
- Annexin-V positive JJN-3 cells (%) at 10000 pM TCB, Experiment 2 [6]: 29.7%
- Lysis of JJN-3 cells (%) at 0.1 pM TCB, Experiment 2 [7]: 36.5%
- Lysis of JJN-3 cells (%) at 1 pM TCB, Experiment 1 [7]: -4.29%
- Lysis of JJN-3 cells (%) at 1 pM TCB, Experiment 2 [7]: 24.4%
- Lysis of JJN-3 cells (%) at 10 pM TCB, Experiment 1 [7]: 73.6%
- Lysis of JJN-3 cells (%) at 10 pM TCB, Experiment 2 [7]: 41.7%
- Lysis of JJN-3 cells (%) at 100 pM TCB, Experiment 1 [7]: 56.3%
- Lysis of JJN-3 cells (%) at 100 pM TCB, Experiment 2 [7]: 53%
- Lysis of JJN-3 cells (%) at 1000 pM TCB, Experiment 1 [7]: 90.5%
- Lysis of JJN-3 cells (%) at 1000 pM TCB, Experiment 2 [7]: 94.1%
- Lysis of JJN-3 cells (%) at 10000 pM TCB, Experiment 1 [7]: 88%
- Lysis of JJN-3 cells (%) at 10000 pM TCB, Experiment 2 [7]: 91.2%
- EC50 [4]: 7.9 nM and 1.14 µg/mL
- EC50 [8]: 30 nM and 4.33 µg/mL
